Among the data in article PMC3690454, “14-3-3 Proteins Interact with a Hybrid Prenyl-Phosphorylation Motif to Inhibit G Proteins” (Cell, 2013) are Kd values, retold here.

Square brackets hold non-standard residues; d marks the D form. Ends that are not written are not given here. * marks the point of attachment. Geranylgeranyl = CC(C)=CCC/C(C)=C/CC/C(C)=C/CC/C(C)=C/C*; Biotin = O=C1N[C@H]2[C@H](CS[C@H]2CCCCC(=O)*)N1; pS = N[C@@H](COP(=O)(O)O)C(=O)O; Ahx = NCCCCCC(=O)O

Test [1] deals with T1, hexa-His-tagged 14-3-3ζ (UniProt P63104 1-245).
T1 construct: 14-3-3ζ, expressed essentially as in Kostelecky et al., 2009; eluted as a dimer of ~60 kDa; also called recombinant 14-3-3ζ; 14-3-3ζ domain; source: E. coli BL21(DE3) Star, purified (HisTrap, size-exclusion chromatography)
T1 sequence: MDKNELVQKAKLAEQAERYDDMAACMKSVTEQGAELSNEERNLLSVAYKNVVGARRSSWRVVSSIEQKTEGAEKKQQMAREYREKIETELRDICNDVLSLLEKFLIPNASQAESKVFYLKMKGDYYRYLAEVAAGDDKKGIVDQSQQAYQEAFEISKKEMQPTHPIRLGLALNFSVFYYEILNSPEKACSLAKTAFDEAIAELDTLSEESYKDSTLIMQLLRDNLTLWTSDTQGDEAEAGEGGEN
The experiment in a line: BLI; Octet RED96; biotinylated peptides immobilised on streptavidin biosensors; dilution series of 14-3-3ζ; 25 mM Tris, 150 mM NaCl, 0.1% Tween-20; KD of +P-F by steady-state analysis. The following applies: both partners purified. Background: Biolayer interferometry detects binding as a change in optical thickness at a sensor tip.

The target in test [2] is T2, hexa-His-tagged 14-3-3ζ (UniProt P63104 1-245).
T2 construct: 14-3-3 protein zeta; expressed and purified essentially as in Kostelecky et al., 2009; eluted as a dimer of ~60 kDa; the ITC methods call it 'the 14-3-3ζ domain'; source: E. coli BL21(DE3) Star, purified (HisTrap, size-exclusion chromatography)
T2 sequence: T1 sequence
Put plainly: BLI; Octet RED96; biotinylated peptides immobilised on streptavidin-coated biosensors (1 μg/ml, 300 s); dilution series of 14-3-3ζ for 300 s, dissociation 300 s; BI buffer 25 mM Tris, 150 mM NaCl, 0.1% Tween-20; data of a typical experiment (n ≥ 3). The conditions noted are these: both partners purified.

In general, Kd refers to the constant that tells how readily two partners part at equilibrium.

B1: biotinylated Rap1A C-terminal peptide, phosphorylated and geranylgeranylated (peptide)
peptide: {Biotin-Ahx}-EKKKPKKK[pS]C(Geranylgeranyl)
notes: C terminus of Rap1A up to the prenylated C181; also called Rap1A peptide; source: synthetic peptide
With B1, the Kd in test [1] is about 25 nM.

B2: Rap1A C-terminal peptide, phosphorylated, not geranylgeranylated (biotinylated) (peptide)
peptide: EKKKPKKK[pS]C
modifications: not fully specified (N-terminus); also: biotinylated
notes: Rap1A C-terminal peptide as Dm2 but without the geranylgeranyl modification; also called Rap1A+P-GG; nonmodified phosphopeptide; source: synthetic peptide
Take B2: the equilibrium dissociation constant (Kd) in test [2] was over 1000 nM.
